The values below come from patent US9650419B2, “Biocompatible protein, biocompatible protein gel and biocompatible conducting protein gel comprising the protein and method for preparing the same” (Research & Business Foundation SUNGKYUNKWAN UNIVERSITY, priority 2014, dated 2017).

The data set concerns the target T1, trypsin (Bos taurus, UniProt P00760).
T1 construct: gene PRSS1
T1 sequence (P00760 24-246): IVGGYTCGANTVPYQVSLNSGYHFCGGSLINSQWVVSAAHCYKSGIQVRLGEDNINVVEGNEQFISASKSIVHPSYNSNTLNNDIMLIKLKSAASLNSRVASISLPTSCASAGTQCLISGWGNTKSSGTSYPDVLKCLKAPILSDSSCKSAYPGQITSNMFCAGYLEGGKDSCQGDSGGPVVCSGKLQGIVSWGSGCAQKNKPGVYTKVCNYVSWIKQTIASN
Put plainly: proteolytic susceptibility with trypsin (HPLC, MALDI-TOF). Type of data set: in vitro ADME. The following applies: 100 μM peptide stock, 200 μM protease stock, TBS buffer pH 7.5, one, seven, thirty days at room temperature. The procedure: In order to confirm whether β-peptide is degraded by a protease, proteolytic susceptibility of β-VhexS was measured with trypsin, chymotrypsin, and subtilisin which cleave protein nonspecifically. Peptide and pretease stock solution was prepared by desolving 100 μM of beta-VhexS and 200 μM of each pretease in TBS buffer at pH 7.5. 10 μL of stock solution. 40 μL of peptide stock solution and 10 μL of protease stock solution were transferred into micro tube and incubated for one, seven, thirty days at room temperature. The reaction was quenched with adding 100 μL of 1% TFA solution. As a control sample, 40 μL of peptide stock solution without protease was also treated with 1% TFA solution.
Degree of peptide degradation was analyzed with high performance liquid chromatography using C3 column for Agilent analysis. […] The HPLC peaks of both standard sample and enzyme treated peptide sample were compared, and the peaks appeared only for enzyme treated sample were analyzed with MALDI-TOF. The results confirmed that β-peptide was not degraded by enzymes.

In the case of “Ac-KVK EVF FVK EVF FVK EVY-NH2 (Ac-KVKEVFFVKEVFFVKEVY-NH2; also: beta-amino acids, places not given here) [β-peptide]”, the “degradation of peptide by protease” value is “not degraded”.
